One test deals with HLA-B*07:02. Put plainly: IEDB peptide-MHC binding, purified MHC/direct/fluorescence; filed as Kd, often an IC50 or EC50 that approximates it; ≥ and ≤ were set here for values at or beyond the usual limits of such assays.
The target in a further test is HLA-A*69:01. The description is as above.
The next test has as its target HLA-A*26:01. Described as above.
A further test deals with HLA-A*11:01. The description is as above.
Test [1] deals with HLA-A*03:01. The description is as above.
The target in test [2] is HLA-A*02:01. The test is described as above.
In the next test the target is HLA-A*01:01. The description is as above.
The next test has as its target HLA-B*08:01. The test is described as above.
For another test, the target named is HLA-B*35:01. The test is described as above.
The next test concerns the target HLA-B*44:02. Described as above.
In test [3] the target is HLA-A*31:01. Described as above.
A further test deals with HLA-B*27:05. The description is as above.
Test [4] deals with HLA-A*02:01. Put plainly: IEDB peptide-MHC binding, purified MHC/competitive/radioactivity; filed as Kd, often an IC50 or EC50 that approximates it; ≥ and ≤ were set here for values at or beyond the usual limits of such assays.
The target in a further test is HLA-A*02:17. The description is as above.
Test [5] concerns the target HLA-B*15:01. Put plainly: IEDB peptide-MHC binding, purified MHC/direct/fluorescence; filed as Kd, often an IC50 or EC50 that approximates it; ≥ and ≤ were set here for values at or beyond the usual limits of such assays.
Another test concerns the target HLA-B*39:01. The description is as above. As to conditions: source organism: Giardia lamblia ATCC 50803.
The next test concerns the target HLA-B*58:01. The description is as above.
The next test has as its target HLA-B*40:01. The test is described as above.
In test [6] the target is HLA-A*31:01. Put plainly: IEDB peptide-MHC binding, purified MHC/competitive/fluorescence; filed as Kd, often an IC50 or EC50 that approximates it; ≥ and ≤ were set here for values at or beyond the usual limits of such assays.
In a further test the target is HLA-A*24:03. In words: IEDB peptide-MHC binding, purified MHC/direct/fluorescence; filed as Kd, often an IC50 or EC50 that approximates it; ≥ and ≤ were set here for values at or beyond the usual limits of such assays.
The target in another test is HLA-B*48:01. The description is as above. Conditions: source organism: Yellow fever virus.
A further test has as its target HLA-B*57:01. Described as above. As to conditions: source organism: Yellow fever virus.
The target in a further test is HLA-B*46:01. Described as above. Conditions: source organism: Yellow fever virus.
The next test deals with HLA-B*18:01. Described as above. Conditions: source organism: Yellow fever virus.
The target of the next test is HLA-B*15:09. Described as above. As to conditions: source organism: Yellow fever virus.
The next test has as its target HLA-A*02:03. Put plainly: IEDB peptide-MHC binding, purified MHC/competitive/radioactivity; filed as Kd, often an IC50 or EC50 that approximates it; ≥ and ≤ were set here for values at or beyond the usual limits of such assays. Conditions: source organism: Dengue virus 1 Brazil/97-11/1997.
Another test deals with HLA-A*02:06. The description is as above. As to conditions: source organism: Dengue virus 1 Brazil/97-11/1997.
Test [7] has as its target HLA-A*03:01. In words: IEDB peptide-MHC binding, purified MHC/competitive/fluorescence; filed as Kd, often an IC50 or EC50 that approximates it; ≥ and ≤ were set here for values at or beyond the usual limits of such assays.
Another test deals with HLA-A*68:01. In words: IEDB peptide-MHC binding, purified MHC/competitive/radioactivity; filed as Kd, often an IC50 or EC50 that approximates it; ≥ and ≤ were set here for values at or beyond the usual limits of such assays. As to conditions: source organism: Lassa virus Josiah.
The next test has as its target HLA-A*33:01. The description is as above. Conditions: source organism: Lassa virus Josiah.
The target in test [8] is HLA-B*15:01. In words: IEDB peptide-MHC binding, purified MHC/competitive/fluorescence; filed as Kd, often an IC50 or EC50 that approximates it; ≥ and ≤ were set here for values at or beyond the usual limits of such assays. Conditions: source organism: Escherichia coli O157:H7 str. EDL933.
The mark [9] stands for this setting: source organism: Vibrio parahaemolyticus.
Setting [10] is: source organism: Dengue virus 3 China/80-2/1980.
Where [11] appears, read: source organism: Giardia lamblia ATCC 50803.
[12] abbreviates: source organism: Haemophilus influenzae.
The mark [13] stands for this setting: source organism: Corynebacterium glutamicum.
Where [14] appears, read: source organism: Yellow fever virus.
[15] abbreviates: source organism: Dengue virus 1 Singapore/S275/1990.
The mark [16] stands for this setting: source organism: Bacillus anthracis str. A2012.
Setting [17] is: source organism: Shigella sonnei Ss046.
[18] abbreviates: source organism: Mammarenavirus lassaense.

Consider AFDWPELEF, for which the Kd with HLA-B*07:02 (setting [9]), with HLA-A*69:01 (setting [9]), with HLA-A*26:01 (setting [9]), with HLA-A*11:01 (setting [9]), with HLA-A*03:01 [1] (setting [9]) and in the test with HLA-A*02:01 [2] (setting [9]) was at least 20000 nM each time. The Kd (as a rule, the concentration at which binding is half-saturated) in the test with HLA-A*01:01 (setting [9]) was at least 20000 nM; in the test with HLA-B*08:01 (setting [9]), at least 20000 nM; with HLA-B*35:01 (source organism: Vibrio vulnificus), 77.2 nM; with HLA-B*44:02 (setting [9]), at least 20000 nM; with HLA-A*31:01 [3] (setting [9]), at least 20000 nM; with HLA-B*27:05 (setting [9]) it was at least 20000 nM.
For ALFSGVSWIM, the Kd with HLA-A*02:01 [4] (setting [10]) was 6.61 nM; with HLA-A*02:17 (setting [10]), 202 nM.
Regarding ARADGILRF, the Kd in the test with HLA-B*07:02 (setting [11]), with HLA-A*69:01 (setting [11]), with HLA-A*26:01 (setting [11]), in the test with HLA-A*11:01 (setting [11]), with HLA-A*03:01 [1] (setting [11]) and with HLA-A*02:01 [2] (setting [11]) was at least 20000 nM throughout. Further, the Kd with HLA-A*01:01 (setting [11]) was at least 20000 nM; with HLA-B*08:01 (setting [11]) it was at least 20000 nM; with HLA-B*35:01 (setting [11]) it was 4030 nM; with HLA-B*44:02 (setting [11]) it was at least 20000 nM; with HLA-B*15:01 [5] (setting [11]) it was at least 20000 nM; in the test with HLA-B*39:01, 2560 nM. Further, the equilibrium dissociation constant (Kd) is at least 20000 nM with HLA-B*58:01 (setting [11]), at least 20000 nM with HLA-A*31:01 [3] (setting [11]), 3170 nM in the test with HLA-B*40:01 (setting [11]) and 201 nM with HLA-B*27:05 (setting [11]).
AVFEIFFRK: the dissociation constant Kd in the test with HLA-A*31:01 [6] (source organism: Mycobacterium tuberculosis variant bovis BCG str. Pasteur 1173P2) turned out to be 61.7 nM; with HLA-A*11:01 (source organism: Mycobacterium tuberculosis) it was 12.6 nM.
For the sequence EIKFNDITF, the Kd with HLA-B*07:02 (setting [12]) was 1060 nM; with HLA-A*69:01 (setting [12]), at least 20000 nM; with HLA-A*26:01 (setting [12]), 568 nM; with HLA-A*11:01 (setting [12]), at least 20000 nM; with HLA-A*03:01 [1] (setting [12]) it was at least 20000 nM; with HLA-A*02:01 [2] (setting [12]), at least 20000 nM. Also, the Kd with HLA-A*01:01 (setting [12]) is at least 20000 nM; with HLA-B*08:01 (setting [12]), 2640 nM; with HLA-B*35:01 (setting [12]) it was 50.9 nM; with HLA-B*15:01 [5] (setting [12]), at least 20000 nM; in the test with HLA-B*58:01 (setting [12]), at least 20000 nM; with HLA-A*31:01 [3] (setting [12]), at least 20000 nM. Further, the Kd with HLA-B*40:01 (setting [12]) and with HLA-B*27:05 (setting [12]) was at least 20000 nM in each case.
Turning to FAAAAARTL, the Kd with HLA-B*07:02 (setting [13]) is 122 nM; with HLA-A*26:01 (setting [13]), at least 20000 nM; with HLA-A*11:01 (setting [13]), at least 20000 nM; with HLA-A*03:01 [1] (setting [13]) it was at least 20000 nM; in the test with HLA-A*02:01 [2] (setting [13]) it was at least 20000 nM; with HLA-A*01:01 (setting [13]) it was at least 20000 nM. In addition, the Kd with HLA-B*08:01 (setting [13]) is 2340 nM; with HLA-B*35:01 (setting [13]) it was 5.17 nM; with HLA-B*15:01 [5] (setting [13]) it was 296 nM; with HLA-B*58:01 (setting [13]), 2380 nM; with HLA-A*31:01 [3] (setting [13]), at least 20000 nM; with HLA-A*24:03 (setting [13]), at least 20000 nM. The Kd with HLA-B*40:01 (setting [13]) was 2570 nM; with HLA-B*27:05 (setting [13]) it was at least 20000 nM.
As for FHKRDMRLL, the Kd with HLA-B*48:01, in the test with HLA-B*07:02 (setting [14]), in the test with HLA-B*57:01, with HLA-A*69:01 (setting [14]), with HLA-B*46:01 and with HLA-A*11:01 (setting [14]) was at least 20000 nM each time. The Kd with HLA-A*03:01 [1] (setting [14]), in the test with HLA-A*02:01 [2] (setting [14]), with HLA-A*01:01 (setting [14]), in the test with HLA-B*18:01, in the test with HLA-B*44:02 (setting [14]) and in the test with HLA-B*15:01 [5] (setting [14]) was at least 20000 nM throughout. Moreover, the Kd with HLA-B*58:01 (setting [14]) is at least 20000 nM; in the test with HLA-A*31:01 [3] (setting [14]), at least 20000 nM; in the test with HLA-B*15:09 it was 3000 nM; with HLA-B*40:01 (setting [14]) it was at least 20000 nM; in the test with HLA-B*27:05 (setting [14]), at least 20000 nM.
For the sequence ILNPYMPSV, the Kd with HLA-A*02:01 [4] (setting [15]) was 4.26 nM; in the test with HLA-A*02:03, 1.98 nM; in the test with HLA-A*02:06, 4.98 nM; with HLA-A*02:17 (setting [15]), 3.58 nM.
Consider KILNPYMPSV, for which the Kd amounted to 4.81 nM in the test with HLA-A*02:01 [4] (setting [15]), 48.5 nM with HLA-A*02:03, 5.14 nM with HLA-A*02:06 and 7.71 nM with HLA-A*02:17 (setting [15]).
Turning to KLRMVTGLR, the Kd with HLA-A*31:01 [6] (source organism: Influenza A virus (A/Bangkok/10/1983(H1N1))) came out at 45.1 nM; with HLA-A*03:01 [1] (source organism: Influenza A virus (A/Liaoning/25/2000(H1N1))), 366 nM.
For LLLSFTSFR, the Kd with HLA-A*03:01 [7] (setting [16]) is 22.9 nM; with HLA-A*31:01 [6] (setting [16]), 2.6 nM.
On to MQLSRLTLR, for which the Kd with HLA-A*03:01 [7] (setting [17]) is 3500 nM; in the test with HLA-A*31:01 [6] (setting [17]) it was 6.1 nM.
For the sequence RTRDIYISR, the Kd with HLA-A*68:01 is 825 nM; in the test with HLA-A*33:01 it was 22.3 nM; with HLA-A*31:01 [6] (source organism: Lassa virus GA391), 4.75 nM; in the test with HLA-A*11:01 (setting [18]), at least 20000 nM; with HLA-A*03:01 [1] (setting [18]), 98.5 nM.
Turning to VLIGRRWFR, the Kd is at least 20000 nM in the test with HLA-B*15:01 [8] and 1.7 nM with HLA-A*31:01 [6] (source organism: Escherichia coli O157:H7 str. EDL933).
In the case of YATVAGHEG, the dissociation constant (Kd) is at least 20000 nM in the test with HLA-A*69:01 (setting [12]); at least 20000 nM with HLA-A*26:01 (setting [12]); at least 20000 nM in the test with HLA-A*11:01 (setting [12]); at least 20000 nM with HLA-A*03:01 [1] (setting [12]); 666 nM in the test with HLA-A*02:01 [2] (setting [12]); at least 20000 nM in the test with HLA-A*01:01 (setting [12]). In addition, the Kd with HLA-B*08:01 (setting [12]) was at least 20000 nM; with HLA-B*35:01 (setting [12]), 290 nM; in the test with HLA-B*15:01 [5] (setting [12]) it was 10500 nM; in the test with HLA-B*58:01 (setting [12]) it was at least 20000 nM; with HLA-A*31:01 [3] (setting [12]), at least 20000 nM; with HLA-A*24:03 (setting [12]), 893 nM. For the same sequence, the Kd with HLA-B*40:01 (setting [12]) and in the test with HLA-B*27:05 (setting [12]) was at least 20000 nM in each case.

The values are drawn from the Immune Epitope Database (IEDB).
